According to patent US20250339531A1 (FRED HUTCHINSON CANCER CENTER, published 2025):

Assays:
[1] = target: T1, 3×MYC-STAT1-S727E phosphorylated at Y701 with JAK1 kinase (UniProt P42224 1-750, phosphorylated at Y701 with JAK1 kinase); experiment: anti-FLAG IP of in vitro translated proteins, with JAK1 treatment, western
T1 construct: In vitro translated in rabbit reticulocyte lysate; not shown: 3×MYC tag
T1 sequence (looked up): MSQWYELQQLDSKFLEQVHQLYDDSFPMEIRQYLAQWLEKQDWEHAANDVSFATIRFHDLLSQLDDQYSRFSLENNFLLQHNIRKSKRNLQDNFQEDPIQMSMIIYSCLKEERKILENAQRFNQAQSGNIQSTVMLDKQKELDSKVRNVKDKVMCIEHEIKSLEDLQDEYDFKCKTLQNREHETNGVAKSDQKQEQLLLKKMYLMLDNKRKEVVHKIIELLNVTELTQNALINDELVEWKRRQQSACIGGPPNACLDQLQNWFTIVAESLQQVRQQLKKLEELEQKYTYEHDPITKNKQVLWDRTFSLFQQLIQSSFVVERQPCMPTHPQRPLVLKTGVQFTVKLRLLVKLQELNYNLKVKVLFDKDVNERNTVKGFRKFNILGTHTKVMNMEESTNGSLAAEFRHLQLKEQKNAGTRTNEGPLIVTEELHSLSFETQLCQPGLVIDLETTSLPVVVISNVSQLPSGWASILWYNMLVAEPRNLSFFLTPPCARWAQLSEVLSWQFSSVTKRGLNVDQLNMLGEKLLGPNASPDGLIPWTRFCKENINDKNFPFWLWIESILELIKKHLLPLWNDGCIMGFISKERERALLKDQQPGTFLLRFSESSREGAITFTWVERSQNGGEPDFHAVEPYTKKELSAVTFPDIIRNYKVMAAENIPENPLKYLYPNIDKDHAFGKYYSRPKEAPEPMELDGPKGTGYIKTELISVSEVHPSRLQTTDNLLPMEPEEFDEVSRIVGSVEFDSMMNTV

3×MYC-STAT1-S727E = target: T2, 3×MYC-STAT1-S727E (UniProt P42224 1-750); experiment: anti-FLAG IP of in vitro translated proteins, without JAK1 treatment, western
T2 construct: In vitro translated in rabbit reticulocyte lysate; also called phospho-mimic STAT1-S727E; not shown: 3×MYC tag
T2 sequence (looked up): T1 sequence (looked up)

B1: i3XFLAG-NLS-CTDaa154-424 (other)
chain: MDYKDHDGDYKDHDIDYKDDDDKPPKRMRREPKKKRKVGRAPAQAGGLCSAAPGGGHPAPSWVAFAHTGAWGTGLPAPHVPCAPGALPQGAFVSQAARAAPALQPSQAAPAEGISQPAPARGDFAYAAPAPPDGALSHPQAPRWPPHPGKSREDRDPQRDGLPGPCAVAQPGPAQAGPQGQGVLAPPTSQGSPWWGWGRGPQVAGAAWEPQAGAAPPPQPAPPDASASARQGQMQGIPAPSQALQEPAPWSALPCGLLLDELLASPEFLQQAQPLLETEAPGELEASEEAASLEAPLSEEEYRALLEEL
notes: Doxycycline-induced in MB135 cells for co-IP; also called longCTD; iDUX4-CTD
B1: no binding [1]; no binding (3×MYC-STAT1-S727E).
